# Laboratory results: article PMC10344929, “Crosstalk between regulatory elements in disordered TRPV4 N-terminus modulates lipid-dependent channel activity” (Nature Communications, 2023)
# B1: Gallus gallus TRPV4 isolated intrinsically disordered region (residues 2-134) (domain or fragment, UniProt A0A1D5PXA5 2-134, looked up)
# chain: ADPEDPRDAGDVLGDDSFPLSSLANLFEVEDTPSPAEPSRGPPGAVDGKQNLRMKFHGAFRKGPPKPMELLESTIYESSVVPAPKKAPMDSLFDYGTYRQHPSENKRWRRRVVEKPVAGTKGPAPNPPPILKV
# notes: TRPV4, Gallus gallus, N-terminal intrinsically disordered region, residues 2-134; Made from the NTD vector by Gibson deletion; also called IDR; TRPV4 IDR; source: E. coli BL21-Gold(DE3), purified (Ni-NTA, Ulp-1 cleavage, reverse Ni-NTA, SEC); not shown: His6SUMO, N-terminal, cleaved
# Biological target: T1, Gallus gallus TRPV4 isolated ankyrin repeat domain (residues 135-382) (Gallus gallus, UniProt A0A1D5PXA5 135-382)
# T1 construct: TRPV4, Gallus gallus, ankyrin repeat domain, residues 135-382; Made from the NTD vector by Gibson deletion; also called ARD; TRPV4 ARD; source: E. coli BL21-Gold(DE3), purified (Ni-NTA, Ulp-1 cleavage, reverse Ni-NTA, SEC); not shown: His6SUMO, N-terminal, cleaved
# Assay: cross-linking; DSS-H12/D12 cross-linking mass spectrometry; isolated IDR and ARD mixed 1:1; 1.5 nmol DSS per ug protein, 2 h at 4 °C, 1 mg/mL protein, 20 mM HEPES pH 7, 300 mM NaCl
# Conditions: both partners purified
# T1 sequence (A0A1D5PXA5 135-382): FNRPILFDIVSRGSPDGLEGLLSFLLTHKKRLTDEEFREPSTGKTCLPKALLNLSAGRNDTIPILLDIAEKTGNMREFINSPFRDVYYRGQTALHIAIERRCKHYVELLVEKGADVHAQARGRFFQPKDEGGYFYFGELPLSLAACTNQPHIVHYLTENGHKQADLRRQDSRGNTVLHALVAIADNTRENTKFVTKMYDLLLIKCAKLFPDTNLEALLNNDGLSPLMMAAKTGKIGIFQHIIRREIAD
binder,measurement,value
B1,binding result,binds
